We go through 10 molecules from EP4534554A1 (Corregene Biotechnology Co., Ltd., dated 2025).

The target of experiment [1] is MAGE-A1 target antigen peptide … presented by HLA-A*02:01 on cells (human). The experiment in a line: cell-based or functional assay.
Experiment [2] concerns the target T1, MAGE-A1 peptide on HLA-A*02:01 (human).
T1 peptide: KVLEYVIKV
The experiment in a line: JKR9 reporter + peptide-loaded T2, 16 h; full-length, on cells.

Experiment [3] concerns the target MAGE-A1 Dextramer (human). The experiment in a line: MAGE-A1 Dextramer gradient staining (MFI) of cells expressing the TCR, flow cytometry. Background: A flow cytometer gives signals particle by particle.
Experiment [4] addresses MAGE-A1 Dextramer (human). The experiment in a line: KD-SPR estimated from Dextramer staining MFI by the linear formula of Figure 6; not measured by SPR.
Experiment [5] deals with T1, MAGE-A1 peptide on HLA-A*02:01. The experiment in a line: MAGE-A1 Dextramer gradient on transduced JKR9; unit inferred; full-length, on cells.
The target is the same in experiment [6]. The experiment in a line: KD-SPR estimated from Dextramer MFI by the formula calibrated on gp100 TCRs, not measured; unit inferred; full-length, on cells.

B1: A1A2-M01-612 (TCR, V domains shown)
Valpha: GEDVEQSLFLSVREGDSSVINCTYVDPYSTYLYWYKQEPGAGLQLLTYIFSFMDMKQDQRLTVLLNKKDKHLSLRIADTQTGDSAIYFCAGSGGGTDKLIFGTGTRLQVFP
Vbeta: GAVVSQHPSWVICKSGTSVKIECRSLDFEATTMFWYRQFPKQSLMLMATSNEGSKATYEQGVEKDKFLINHASLTLSTLTVTSAHPEDSSFYICSAREPWDPWYEQYFGPGTRLTVT
B1: in experiment [1], the EC50 Value (M), JKR9 reporter activation by peptide-loaded T2 cells was 2.3e-08 M. The EC50 of peptide in experiment [2] is 23 nM. In addition, the EC50 – broadly, the concentration at which the effect is half-maximal – in experiment [3] worked out at 0.0475 nM. For the same molecule, the dissociation constant (Kd) (as a rule, the free concentration of one partner at which half of the binding sites on the other are occupied at equilibrium, for simple one-to-one binding) in experiment [4] was 0.00294 nM; in experiment [6], about 0.00294 nM. In addition, in experiment [5], the “EC50 of Dextramer staining” value was determined as 0.0475 nM.

B2: A1A2-M01-613 (TCR, V domains shown)
Valpha: GEDVEQSLFLSVREGDSSVINCTYTDSSLTYLYWYKQEPGAGLQLLTYIFSFMDMKQDQRLTVLLNKKDKHLSLRIADTQTGDSAIYFCAGSGGGTDKLIFGTGTRLQVFP
Vbeta: GAVVSQHPSWVICKSGTSVKIECRSLDFQATTMFWYRQFPKQSLMLMATTDYGSKATYEQGVEKDKFLINHASLTLSTLTVTSAHPEDSSFYICSAREPGQGPWEQYFGPGTRLTVT
In the case of B2, the EC50 Value (M), JKR9 reporter activation by peptide-loaded T2 cells in experiment [1] was found to be 2.62e-08 M. In addition, the EC50 of peptide in experiment [2] amounted to 26.2 nM. This molecule yielded an EC50 in experiment [3] of 0.0961 nM. Further, the Kd in experiment [4] was 0.0338 nM; in experiment [6] it was about 0.0338 nM. For the same molecule, the “EC50 of Dextramer staining” value in experiment [5] was found to be 0.0961 nM.

B3: A1A2-M01-620 (TCR, V domains shown)
Valpha: GEDVEQSLFLSVREGDSSVINCTYTDSSQTYLYWYKQEPGAGLQLLTYIFSNMDMKQDQRLTVLLNKKDKHLSLRIADTQTGDSAIYFCAGSGGGTDKLIFGTGTRLQVFP
Vbeta: GAVVSQHPSWVICKSGTSVKIECRSLDFEATTMFWYRQFPKQSLMLMATTDYGSKATYEQGVEKDKFLINHASLTLSTLTVTSAHPEDSSFYICSAREPGQAWSDQYFGPGTRLTVT
Molecule B3 came in with an EC50 Value (M), JKR9 reporter activation by peptide-loaded T2 cells in experiment [1] of 2.5e-08 M. For the same molecule, in experiment [2], the EC50 of peptide was 25 nM. Besides, the EC50 in experiment [3] amounted to 0.212 nM. In addition, the Kd in experiment [4] is 0.524 nM; in experiment [6], about 0.524 nM. Also, the “EC50 of Dextramer staining” value in experiment [5] was determined as 0.212 nM.

B4: A1A2-M01-622 (TCR, V domains shown)
Valpha: GEDVEQSLFLSVREGDSSVINCTYTDSSSTYLYWYKQEPGAGLQLLTYIFAFESMKQDQRLTVLLNKKDKHLSLRIADTQTGDSAIYFCAGSGGGTDKLIFGTGTRLQVFP
Vbeta: GAVVSQHPSWVICKSGTSVKIECRSLDFEATTMFWYRQFPKQSLMLMATTDYGSKATYEQGVEKDKFLINHASLTLSTLTVTSAHPEDSSFYICSAREPGQGPWEQYFGPGTRLTVT
In the case of B4, the EC50 Value (M), JKR9 reporter activation by peptide-loaded T2 cells in experiment [1] was 1.76e-08 M. The EC50 of peptide in experiment [2] amounted to 17.6 nM. In experiment [3], this molecule had an EC50 of 0.0911 nM. In addition, the dissociation constant (Kd) in experiment [4] is 0.028 nM; in experiment [6], about 0.028 nM. Besides, the “EC50 of Dextramer staining” value in experiment [5] worked out at 0.0911 nM.

B5: A1A2-M01-617 (TCR, V domains shown)
Valpha: GEDVEQSLFLSVREGDSSVINCTYPDMFSTYLYWYKQEPGAGLQLLTYIFAFMQMKQDQRLTVLLNKKDKHLSLRIADTQTGDSAIYFCAGSGGGTDKLIFGTGTRLQVFP
Vbeta: GAVVSQHPSWVICKSGTSVKIECRSLDFEATTMFWYRQFPKQSLMLMATSNEGDQATYEQGVEKDKFLINHASLTLSTLTVTSAHPEDSSFYICSAREPGQGPWEQYFGPGTRLTVT
In turn, B5 returned an EC50 Value (M), JKR9 reporter activation by peptide-loaded T2 cells in experiment [1] of 2.61e-08 M. The EC50 of peptide in experiment [2] came to 26.1 nM. In addition, the EC50 in experiment [3] amounted to 0.103 nM. Also, the figures for the Kd in experiment [4] and in experiment [6] were 0.0432 nM and about 0.0432 nM, respectively. The “EC50 of Dextramer staining” value in experiment [5] is 0.103 nM.

B6: A1A2-M01-616 (TCR, V domains shown)
Valpha: GEDVEQSLFLSVREGDSSVINCTYTDSSQTYLYWYKQEPGAGLQLLTYIFAFMQMKQDQRLTVLLNKKDKHLSLRIADTQTGDSAIYFCAGSGGGTDKLIFGTGTRLQVFP
Vbeta: GAVVSQHPSWVICKSGTSVKIECRSLDFEATTMFWYRQFPKQSLMLMATTDYGSKATYEQGVEKDKFLINHASLTLSTLTVTSAHPEDSSFYICSAREPGQGPWEQYFGPGTRLTVT
As for B6, the EC50 Value (M), JKR9 reporter activation by peptide-loaded T2 cells in experiment [1] is 3.23e-08 M. Besides, in experiment [2], the EC50 of peptide amounted to 32.3 nM. The molecule also had a concentration giving a half-maximal response (EC50) in experiment [3] of 0.0808 nM. Moreover, the Kd in experiment [4] was 0.0186 nM; in experiment [6] it was about 0.0186 nM. Further, in experiment [5], the “EC50 of Dextramer staining” value was 0.0808 nM.

B7: A1A2-M01-624 (TCR, V domains shown)
Valpha: GEDVEQSLFLSVREGDSSVINCTYQYGMSTYLYWYKQEPGAGLQLLTYIFSFMDMKQDQRLTVLLNKKDKHLSLRIADTQTGDSAIYFCAGSGGGTDKLIFGTGTRLQVFP
Vbeta: GAVVSQHPSWVICKSGTSVKIECRSLDFEATTMFWYRQFPKQSLMLMATTDYGSKATYEQGVEKDKFLINHASLTLSTLTVTSAHPEDSSFYICSAREPGQGPWEQYFGPGTRLTVT
In turn, B7 had an EC50 Value (M), JKR9 reporter activation by peptide-loaded T2 cells in experiment [1] of 2.59e-08 M. Moreover, the EC50 of peptide in experiment [2] was 25.9 nM. This molecule also returned an EC50 in experiment [3] of 0.116 nM. In addition, the dissociation constant Kd is 0.0651 nM in experiment [4] and about 0.0651 nM in experiment [6]. Also, the “EC50 of Dextramer staining” value in experiment [5] is 0.116 nM.

B8: A1A2-M01-621 (TCR, V domains shown)
Valpha: GEDVEQSLFLSVREGDSSVINCTYTDSEFTYLYWYKQEPGAGLQLLTYIFAFESMKQDQRLTVLLNKKDKHLSLRIADTQTGDSAIYFCAGSGGGTDKLIFGTGTRLQVFP
Vbeta: GAVVSQHPSWVICKSGTSVKIECRSLDFEATTMFWYRQFPKQSLMLMATTDYGSKATYEQGVEKDKFLINHASLTLSTLTVTSAHPEDSSFYICSAREPGQGPWEQYFGPGTRLTVT
Take B8: the EC50 Value (M), JKR9 reporter activation by peptide-loaded T2 cells in experiment [1] came to 3.57e-08 M. The EC50 of peptide in experiment [2] amounted to 35.7 nM. The EC50 in experiment [3] amounted to 0.121 nM. Moreover, the Kd in experiment [4] was 0.0747 nM; in experiment [6], about 0.0747 nM. The “EC50 of Dextramer staining” value in experiment [5] worked out at 0.121 nM.

B9: A1A2-M01-623 (TCR, V domains shown)
Valpha: GEDVEQSLFLSVREGDSSVINCTYTDSSQTYLYWYKQEPGAGLQLLTYIFIFQAMKQDQRLTVLLNKKDKHLSLRIADTQTGDSAIYFCAGSGGGTDKLIFGTGTRLQVFP
Vbeta: GAVVSQHPSWVICKSGTSVKIECRSLDFEATTMFWYRQFPKQSLMLMATTDYGSKATYEQGVEKDKFLINHASLTLSTLTVTSAHPEDSSFYICSAREPGQGPWEQYFGPGTRLTVT
B9 had an EC50 Value (M), JKR9 reporter activation by peptide-loaded T2 cells in experiment [1] of 3.06e-08 M. In addition, the EC50 of peptide in experiment [2] came out at 30.6 nM. The same molecule returned an EC50 in experiment [3] of 0.187 nM. Besides, the Kd in experiment [4] is 0.337 nM; in experiment [6], about 0.337 nM. Besides, in experiment [5], the “EC50 of Dextramer staining” value amounted to 0.187 nM.

B10: A1A2-M01-614 (TCR, V domains shown)
Valpha: GEDVEQSLFLSVREGDSSVINCTYSDMLSTYLYWYKQEPGAGLQLLTYIFIFQAMKQDQRLTVLLNKKDKHLSLRIADTQTGDSAIYFCAGSGGGTDKLIFGTGTRLQVFP
Vbeta: GAVVSQHPSWVICKSGTSVKIECRSLDFEATTMFWYRQFPKQSLMLMATTDYGSKATYEQGVEKDKFLINHASLTLSTLTVTSAHPEDSSFYICSAREPGQGPWEQYFGPGTRLTVT
Molecule B10 displayed an EC50 Value (M), JKR9 reporter activation by peptide-loaded T2 cells in experiment [1] of 2.94e-08 M. Also, the EC50 of peptide in experiment [2] stood at 29.4 nM. For the same molecule, the concentration giving a half-maximal response (EC50) in experiment [3] came out at 0.163 nM. In addition, the Kd is 0.208 nM in experiment [4] and about 0.208 nM in experiment [6]. Besides, the “EC50 of Dextramer staining” value in experiment [5] worked out at 0.163 nM.
